Literature values in PMC7396566.

How the values were obtained:
[1] = target: TSLP:TSLPR complex (Homo sapiens) (UniProt Q969D9)
IL-7Rα (Homo sapiens) = IL-7Rα (Homo sapiens) (UniProt P16871)
TSLP (Homo sapiens) = TSLP (Homo sapiens) (UniProt Q969D9)

Chain of TSLPR (Q9HC73 23-231): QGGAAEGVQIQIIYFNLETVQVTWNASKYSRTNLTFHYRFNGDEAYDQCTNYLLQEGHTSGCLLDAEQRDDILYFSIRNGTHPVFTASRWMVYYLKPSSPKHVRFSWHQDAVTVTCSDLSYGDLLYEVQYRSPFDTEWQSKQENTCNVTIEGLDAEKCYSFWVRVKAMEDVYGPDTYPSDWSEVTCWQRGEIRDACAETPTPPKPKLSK

Kd [1] | Kd (IL-7Rα (Homo sapiens)) | Kd (TSLP (Homo sapiens)) | Substance
29 nM | – | – | IL-7Rα (from UniProt P16871)
– | 20000 nM | 32 nM | TSLPR (from UniProt Q9HC73)
